{
  "source": "paper PMC8617236",
  "molecular_target": "chicken LPCAT3 (cLPCAT3), Twin-Strep tag removed, purified in LMNG/GDN (Gallus gallus)",
  "test": "cryo-EM structure; cLPCAT3 extracted with LMNG, dimer fractions from SEC in GDN; with 0.2 mM arachidonoyl CoA (3.49 Å) or 0.5 mM 12:0-LPC (3.57 Å); C2 symmetry",
  "data": [
    {"substance": "chicken LPCAT3 (cLPCAT3), Twin-Strep tag removed, purified in LMNG/GDN (enzyme)", "values": [
      {"measurement": "stoichiometry N", "value": 2}
    ]}
  ]
}
